Test results published in patent US20030092037A1, “Elk1 phosphorylation related gene” (priority 2001, published 2003).

B1: 30 (protein, listed as Homo sapiens)
chain: MDARWWAVVVLAAFPSLGAGGETPEAPPESWTQLWFFRFVVNAAGYASFMVPGYLLVQYFRRKNYLETGRGLCFPLVKACVFGNEPKASDEVPLAPRTEAAETTPMWQALKLLFCATGLQVSYLTWGVLQERVMTRSYGATATSPGERFTDSQFLVLMNRVLALIVAGLSCVLCKQPRHGAPMYRYSFASLSNVLSSWCQYEALKFVSFPTQVLAKASKVIPVMLMGKLVSRRSYEHWEYLTATLISIGVSMFLLSSGPEPRSSPATTLSGLFTVGSLLEQGALLEGTRFMGRHSEFAAHALLLSICSACGQLFIFYTIGQFGAAVFTIIMTLRQAFAILLSCLLYGHTVTVVGGLGVAVVFAALLLRVYARGRLKQRGKKAVPVESPVQKV
B2: 26 (protein, listed as Homo sapiens)
chain: MALALAALAAVEPACGSRYQQLQNEEESGEPEQAAGDAPPPYSSISAESAAYFDYKDESGFPKPPSYNVATTLPSYDEAERTKAEATIPLVPGRDEDFVGRDDFDDADQLRIGNDGIFMLTFFMAFLFNWIGFFLSFCLTTSAAGRYGAISGFGLSLIKWILIVRFSTYFPGYFDGQYWLWWVFLVLGFLLFLRGFINYAKVRKMPETFSNLPRTRVLFIY
B3: 28 (protein, listed as Homo sapiens)
chain: MTSFEDADTEETVTCLQMTVYHPGQLQCGIFQSISFNREKLPSSEVVKFGRNSNICHYTFQDKQVSRVQFSLQLFKKFNSSVLSFEIKNMSKKTNLIVDSRELGYLNKMDLPYRCMVRFGEYQFLMEKEDGESLEFFETQFILSPRSLLQENNWPPHRPIPEYGTYSLCSSQSSSPTEMDENES

test system: MAP kinase cascade activation; assay: Reporter activity reflecting MAP kinase cascade activation, corrected using an internal control (Elk1-GAL4 luciferase reporter in 293-EBNA cells); type: cell-based, human; conditions: 25 ng/well expression plasmid; 293-EBNA cells; 24 hours

Going from B1 to B2, the “Reporter activity corrected with internal control, as a factor of null vector (S/B value)” value (“Reporter activity corrected” for short) falls from 4.2 to 1.6.

With B3 the “Reporter activity corrected” value was 1.8.

same assay, conditions: 50 ng/well expression plasmid; 293-EBNA cells; 24 hours

First: B1
Second: B2
The “Reporter activity corrected” value of the first is higher: 6.3 for the first, 3.2 for the second.

For B3, the “Reporter activity corrected” value was 2.3.

same assay, conditions: 100 ng/well expression plasmid; 293-EBNA cells; 24 hours

Going from B1 to B2, the “Reporter activity corrected” value falls from 7.6 to 4.1.

B3 was tested, and the “Reporter activity corrected” value was 2.9.

same assay, conditions: plasmid 12.5 ng, 25 ng, 50 ng and 100 ng

With B1 the “Dependence of corrected reporter activity on amount of expression plasmid” value (shortened to “Dependence”) was “increases that were dependent on the amount of expression plasmid”.
In the case of B2, the “Dependence” value is reported as “increases that were dependent on the amount of expression plasmid”.
B3 was tested, and the “Dependence” value was “increases that were dependent on the amount of expression plasmid”.
